{
  "source": "paper PMC6989705",
  "about": "(EJNMMI Radiopharmacy and Chemistry, 2020)",
  "origin": "cited, not measured here",
  "settings": "endogenous ligand; ref Rai et al. [2015]; cited from earlier work",
  "description": "Somatostatin receptors (SSTRs) are validated biomarkers in the management of NETs. The short biological half-life of the endogenous ligand somatostatin (< 5 min) prevents pharmacological use of this peptide (Rai et al. [2015]). Therefore, synthetic somatostatin analogs that are more resistant to peptidases, such as octreotide, were developed. Using radiolabeled somatostatin analogs, the presence of SSTRs on tumor cells may be exploited for molecular imaging and targeted radionuclide therapy (TRNT) for the treatment of unresectable neuroendocrine tumors (Pauwels et al. [2018]; Deroose et al. [2 ...",
  "data": [
    {"substance": "somatostatin", "values": [
      {"measurement": "biological half-life", "result": "< 5", "unit": "min"}
    ]}
  ]
}
